B1: Nb 2.11, monomeric nanobody (VHH)
VHH: QVQLVESGGGSVQAGGSLRLSCAASGDASNRKCVSWFRRAPGKEREGVALIFPVGSSTAYADSVKGRFTISQDSAKDTVYLQMNNLKPEDSGTYYCAAVSWGGRCNLETQTVTFWGQGTQVTVSS
B2: hcAb 2.11 (Nb 2.11 fused to the human IgG1 hinge and Fc) (Fc fusion)
chain: B1 VHH
B3: hcAb 1.26 (Nb 1.26 fused to the human IgG1 hinge and Fc) (Fc fusion)
chain: QVQLVESGGGLVQAGGSLRLSCAATGYTWSSVCMGWFRQAPGKEREGVAGIPSGRNRPYYADSVKGRFTISQDNAKNAVFLLMNSLKPEDTAIYYCAPCSAPHDPEYNYWGQGTQVTVSS
B4: hcAb 1.10 (Nb 1.10 fused to the human IgG1 hinge and Fc) (Fc fusion)
chain: QVQLVESGGGSVQAGGSLRLSCAASGYTYSTCRKGWYRQAPGKERELVASITADGATYYLDSVKGRLTISQDNAKNTVYLQMNSLKPEDTAVYYCAASVKDFTCTFNSWGQGTQVTVSS
B5: hcAb 2.15 (Nb 2.15 fused to the human IgG1 hinge and Fc) (Fc fusion)
chain: QVQLVESGGGSVQAGGSLKLSCAASGYASWARKCIGWFRQAPGQEREGVAAIFDFDGSTYYSDSVKGRFTISGDNAKNTVSLQMNSLLPKDTAVYYCTVAFGTCDNWYRGRGDYWGQGTQVTVSS
B6: Nb 2.15, monomeric nanobody (VHH)
VHH: B5 chain
B7: hcAb 1.29 (Nb 1.29 fused to the human IgG1 hinge and Fc) (Fc fusion)
chain: QVQLVESGGGSVQAGGSLRLSCAASGYTINTDAVAWFRQAPGKGDERVAVIYTGSGNTNYADSVKGRFTISQDNAKNTVYLQMNSLKPEDTALYYCASGYYGASGYDFNNWGQGTQVTVSS
B8: Nb 1.16, monomeric nanobody (VHH)
VHH: QVQLVESGGGSVQAGGSLRLSCAASGNTSKRKCVGWFRRAPGKEREGVTLIYTVGGSTVYADSVKGRFTISQDNAKDTVYLQMNSLKPEDSAMYYCAAESWGRQCNLETHRFTFWGQGTQVTVSS
B9: hcAb 1.16 (Nb 1.16 fused to the human IgG1 hinge and Fc) (Fc fusion)
chain: B8 VHH
B10: hcAb 2.20 (Nb 2.20 fused to the human IgG1 hinge and Fc) (Fc fusion)
chain: QVQLVESGGGSVQAGGSLRLSCAASGYTYNNYYMGWFRQAPGKEREGVAAINSDGLDTYVADSVKGRFTISRDNAKDTVHLQMNSLKPEDTAIYSCATGRTVYYSGYDFRLSVDDYWGQGTQVTVSS
B11: hcAb 2.1 (Nb 2.1 fused to the human IgG1 hinge and Fc) (Fc fusion)
chain: QVQLVESGGGSVQAGGSLRLSCAAFGATISSAHMGWFRQAPGKEREGVAFRYTDGSSTYYTTSVRGRFTISQDNAKNTVYLQMNSLKPEDTAMYYCASNPSWGRLVGGQYNNWGQGTQITVSS
B12: Nb 2.1, monomeric nanobody (VHH)
VHH: B11 chain

Biological target: monomeric SARS-CoV-2 RBD (S residues 332-534) with Flag peptide and 8xHis-tag (SARS-CoV-2 (WA1 strain), UniProt P0DTC2 332-534)
Assay: SPR

Binder	Kd
B1	2.17 nM
B2	0.16 nM
B3	0.08 nM
B4	0.77 nM
B5	0.08 nM
B6	0.39 nM
B7	0.63 nM
B8	3.59 nM
B9	0.25 nM
B10	0.21 nM
B11	0.36 nM
B12	1.74 nM

Reference: paper PMC9082315 (2022)
